From paper PMC10635376, “New insights into the mechanism and DNA-sequence specificity of INO80 chromatin remodeling” (Research Square, 2023)

Target: Recombinant Xenopus laevis histone octamer reconstituted into 70N5 mononucleosomes (Xenopus laevis)
Assay: native gel or EMSA; 70N5 601 nucleosomes with photo-reactive DNA bound with saturating INO80 at 30 C for 30 min; extent of binding on 4% native polyacrylamide gels

Native wild-type Saccharomyces cerevisiae INO80 complex (from UniProt P53115 1-1489; P53946 1-755; P32617 1-166; P40154 1-320; Q12386 1-881; P80428 1-489; P60010 1-375)
percent of nucleosomes bound: > 90%
